The results in this text go back to paper PMC10706726.

The assay has as its target cLUC-LcMYB111 (litchi).

LcHY5-nLUC (natural protein) came in with a dual-luciferase reporter (LUC/REN): activation of proLcFLS-A when LcMYB111 was co-infiltrated with LcHY5 (untagged effectors) of 18.8 fold and a dual-luciferase reporter (LUC/REN): activation of proLcFLS-B when LcMYB111 was co-infiltrated with LcHY5 (untagged effectors) of 5.78 fold.
